The values that follow come from article PMC12416549 (2024).

Numbering of substitutions follows the chain as printed. Numbers in names are those of the source.

Sequences and labels used below:
T1: TNFR1 (Homo sapiens, UniProt P19438)
T1 chain: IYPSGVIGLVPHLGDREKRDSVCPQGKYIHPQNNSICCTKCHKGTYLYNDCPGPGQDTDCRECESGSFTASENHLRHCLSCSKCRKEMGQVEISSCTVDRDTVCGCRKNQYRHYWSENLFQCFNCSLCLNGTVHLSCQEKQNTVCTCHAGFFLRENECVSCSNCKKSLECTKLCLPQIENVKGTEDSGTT

B1: K23G (designed binder)
chain: SMEEEVEKAAKEYEKKKKEAIEGHLEKLKAKDKEAAERFLKELEEAAKEYAKDEAKTMSEEEAKRRAKKYKEKVLLSELSEEEQKEIKEAEEKLVRTILKYVEEAAK
B2: R66D (designed binder)
chain: B1 chain with G23K, R66D
B3: L40T (designed binder)
chain: B1 chain with G23K, L40T
B4: L75Y (designed binder)
chain: B1 chain with G23K, L75Y
B5: K18Q (designed binder)
chain: B1 chain with K18Q, G23K
B6: E82W (designed binder)
chain: B1 chain with G23K, E82W
B7: E61S (designed binder)
chain: B1 chain with G23K, E61S
B8: K107F (designed binder)
chain: B1 chain with G23K, K107F
B9: L99I (designed binder)
chain: B1 chain with G23K, L99I
B10: V74T (designed binder)
chain: B1 chain with G23K, V74T
B11: T57E (designed binder)
chain: B1 chain with G23K, T57E
B12: K69F (designed binder)
chain: B1 chain with G23K, K69F
B13: E72M (designed binder)
chain: B1 chain with G23K, E72M
B14: E103W (designed binder)
chain: B1 chain with G23K, E103W
B15: M2S (designed binder)
chain: B1 chain with M2S, G23K
B16: D32R (designed binder)
chain: B1 chain with G23K, D32R
B17: A10Q (designed binder)
chain: B1 chain with A10Q, G23K
B18: A46W (designed binder)
chain: B1 chain with G23K, A46W
B19: E7V (designed binder)
chain: B1 chain with E7V, G23K
B20: E82I (designed binder)
chain: B1 chain with G23K, E82I
B21: E5L (designed binder)
chain: B1 chain with E5L, G23K
B22: L99S (designed binder)
chain: B1 chain with G23K, L99S
B23: E14A (designed binder)
chain: B1 chain with E14A, G23K
B24: R65T (designed binder)
chain: B1 chain with G23K, R65T
B25: E5I (designed binder)
chain: B1 chain with E5I, G23K
B26: A63V (designed binder)
chain: B1 chain with G23K, A63V
B27: T57S (designed binder)
chain: B1 chain with G23K, T57S
B28: V95D (designed binder)
chain: B1 chain with G23K, V95D
B29: A63Y (designed binder)
chain: B1 chain with G23K, A63Y
B30: A67E (designed binder)
chain: B1 chain with G23K, A67E
B31: K68H (designed binder)
chain: B1 chain with G23K, K68H
B32: L94K (designed binder)
chain: B1 chain with G23K, L94K
B33: R65P (designed binder)
chain: B1 chain with G23K, R65P
B34: K27S (designed binder)
chain: B1 chain with G23K, K27S
B35: E91R (designed binder)
chain: B1 chain with G23K, E91R
B36: E49T (designed binder)
chain: B1 chain with G23K, E49T
B37: E44Y (designed binder)
chain: B1 chain with G23K, E44Y
B38: E49Y (designed binder)
chain: B1 chain with G23K, E49Y
B39: M2F (designed binder)
chain: B1 chain with M2F, G23K
B40: A105D (designed binder)
chain: B1 chain with G23K, A105D
B41: K64C (designed binder)
chain: B1 chain with G23K, K64C
B42: E62I (designed binder)
chain: B1 chain with G23K, E62I
B43: L94F (designed binder)
chain: B1 chain with G23K, L94F
B44: K8R (designed binder)
chain: B1 chain with K8R, G23K
B45: R65W (designed binder)
chain: B1 chain with G23K, R65W
B46: L43F (designed binder)
chain: B1 chain with G23K, L43F
B47: E91H (designed binder)
chain: B1 chain with G23K, E91H
B48: E5H (designed binder)
chain: B1 chain with E5H, G23K
B49: V95L (designed binder)
chain: B1 chain with G23K, V95L
B50: Y50A (designed binder)
chain: B1 chain with G23K, Y50A
B51: L76V (designed binder)
chain: B1 chain with G23K, L76V
B52: Y13P (designed binder)
chain: B1 chain with Y13P, G23K
B53: E45M (designed binder)
chain: B1 chain with G23K, E45M
B54: E91W (designed binder)
chain: B1 chain with G23K, E91W
B55: D53H (designed binder)
chain: B1 chain with G23K, D53H

The target in this assay is T1, TNFR1. The experiment in a line: yeast display SC50.
For B1, the “apparent Kd (screen)” value turned out to be 0.446 nM. To B2 belongs 0.593 nM; to B3, 0.718 nM; to B4, 1.86 nM. To B5 belongs 1.4 nM. In the case of B6, the “apparent Kd (screen)” value came to 0.539 nM.

With B7, the “apparent Kd (screen)” value stood at 1.4 nM.

As to B8, the “apparent Kd (screen)” value was found to be 3 nM. For B9, the “apparent Kd (screen)” value was 2.05 nM. To B10 belongs 16.7 nM; to B11, 3 nM.

As to B12, the “apparent Kd (screen)” value amounted to 0.869 nM. Regarding B13, the “apparent Kd (screen)” value was 1.69 nM.

With B14, the “apparent Kd (screen)” value stood at 0.869 nM. Then B15, with 0.446 nM; and B16, with 3.99 nM. In the case of B17, the “apparent Kd (screen)” value was 1.4 nM. To B18 belongs 2.25 nM. Turning to B19, the “apparent Kd (screen)” value is 7.78 nM.

Turning to B20, the “apparent Kd (screen)” value stood at 0.49 nM. To B21 belongs 0.49 nM; to B22, 11.4 nM; to B23, 3 nM. As to B24, the “apparent Kd (screen)” value was determined as 2.05 nM. Take B25: the “apparent Kd (screen)” value came to 0.653 nM. Then B26, with 15.2 nM; and B27, with 1.27 nM; and B28, with 5.84 nM.

For B29, the “apparent Kd (screen)” value was determined as 12.5 nM. With B30, the “apparent Kd (screen)” value turned out to be 15.2 nM. Regarding B31, the “apparent Kd (screen)” value is 1.4 nM. Take B32: the “apparent Kd (screen)” value was found to be 1.4 nM.

On to B33, for which the “apparent Kd (screen)” value was found to be 20.2 nM. To B34 belongs 0.869 nM; to B35, 6.43 nM.

Consider B36, for which the “apparent Kd (screen)” value was found to be 2.73 nM. To B37 belongs 1.54 nM; to B38, 26.9 nM. To B39 belongs 1.05 nM; to B40, 0.446 nM. Consider B41, for which the “apparent Kd (screen)” value stood at 0.79 nM.

As to B42, the “apparent Kd (screen)” value came out at 2.73 nM. To B43 belongs 0.446 nM. As to B44, the “apparent Kd (screen)” value turned out to be 0.869 nM. To B45 belongs 11.4 nM. B46: the “apparent Kd (screen)” value was found to be 13.8 nM. Turning to B47, the “apparent Kd (screen)” value worked out at 4.39 nM. Then B48, with 0.446 nM; and B49, with 7.07 nM.

On to B50, for which the “apparent Kd (screen)” value came out at 29.5 nM. To B51 belongs 1.4 nM; to B52, 13.8 nM. With B53, the “apparent Kd (screen)” value is 1.69 nM. B54: the “apparent Kd (screen)” value stood at 6.43 nM. Take B55: the “apparent Kd (screen)” value was determined as 1.69 nM.
